Data reported in patent US10562957B2, “Albumin-purification method comprising a nanofiltration step, solution, and composition for therapeutic use containing the same” (LABORATOIRE FRANCAIS DU FRACTIONNEMENT ET DES …, priority 2004, dated 2020).

Biological target: von Willebrand factor (vWf) (Homo sapiens, UniProt P04275)
Experiment: Stabilisation of vWf by nanofiltered albumin: freeze-drying and dry heating at 80° C. for 72 hours
Type: physicochemical
Settings: preliminary tests: vWf solution with glycine and arginine, no albumin, dry heating 80° C.
Method: The power of the nanofiltered albumin to stabilise von Willebrand factor (vWf) was assessed using dry heating tests of vWf at 80° C. for 72 hours.
These solutions are then submitted to freeze-drying (45±3 hours) and dry heating as defined above. After heating, the addition of purified water for injection (PWI) to the dry residues reconstitutes solutions A11-A12. The following parameters are analysed: appearance of the solution, dissolution time, activity of vWf and multimeric profile, as measured by electrophoresis.

Substance: vWf: von Willebrand factor solution stabilised with glycine and arginine, without albumin
- activity of vWf (vWf:Ag) compared to the non-heated vWf: > 82%
- multimeric profile: not maintained
